# The DeepSol protein solubility set
# Assay: soluble on expression in E. coli; label from the status in PepcDB or PDB records
row,Sequence,soluble on expression in E. coli
1,EDGRILKRFCQCEQRSLEQLMKDPLRPFVPAYYGMVLQDGQTFNQMEDLLADFEGPSIMDCKMGSRTYLEEELVKARERPRPRKDMYEKMVAVDPGAPTPEEHAQGAVTKPRYMQWRETMSSTSTLGFRIEGIKKADGTCNTNFKKTQALEQVTKVLEDFVDGDHVILQKYVACLEELREALEISPFFKTHEVVGSSLLFVHDHTGLAKVWMIDFGKTVALPDHQTLSHRLPWAEGNREDGYLWGLDNMICLLQGLAQS,soluble
2,VNVVQLASAPLHRIVAYTNESCALALYRDQDATLVFAKQVESANQLRYQLDLYRPVSVLWGASGHAVLAHLPPERVRTLLKKEPLSPTGLAALPARELNRDLKQIREQGYSVSTRGEKIEGAAGISTPIFGTGGHVIGCFSLFIPRIRYPEHRETELAQLLVREAGALSDVLAGRQAAPA,not soluble
3,MGEQDPSDRLRGDQLKEPNQNGKGSFSQFSSSVRAMVRIRMKYQAIKKRRMEIASATPQIFTSPRSTSPKVFTFDNLHEPVNSNPASPRKRKKKRKGRVLYPTSSLRAVPTKESSRAKNCLYLLCIIVFLQVYNAIENLDDHVLKYDLEGLEKTLKREVFGQQEVAEGLLGHLQDYLSTYVHNKPLVLSFHGPTGVGKSHVGRLLAQHFRSVVGEELVMQYFVLHHCPTDDDIPVCTKSLESHISEMVSQGEEEEKIPVFIFDEVEHMPRQLMDTLRELIQPQNSNKYLNAIYILISNLGHEDITKFVLHNSSIAISGRLSLTQELTPWLRNYLQEHHGLFLDAEYLPFMLLEKSHVMDCFIDEMSREGFYPDRSHVERLAEELSYYIVGEREFSHTGCRQVVAKVNLL,soluble
4,MIYFIRKKKWLKQLEKGEAMKYAILIGDGMADYPIEKLGNRTILQAARTPAMDSIAARGRAGLAKTVPDSFPPGSDVANMSILGYDPATYYSGRAPLEAASMGVALAADDVAFRCNLITTEHGMIKDYSAGHISSDEAEILIDTLDYELSTENIRFYPGISYRHLIVAGNNLGAETECTPPHDITGEKIDKYLPRGKDGEFFSELIEASKVVLELHPVNLKRVEEGKNPANSIWVWGQGYAPKFTAFMKLYGKKGAVISAVDLLKGIGIYAGLDVIEVHGATGYLDTNYEGKVRAAIEALKTRDLVFVHVEAPDEAGHEGSIEKKLKAVEDFDSRIVAPILEYAENSDEPFTILVLPDHPTPISVKTHTRDPIPFAIYRTDKPETDNVEAFDEESVKNGSMGLVKASDLIGILIKSLEHHHHHH,soluble
5,SKQNPLKRKRNDEITEEKVVLLMAMHKEDDEHQHTKPSPPSWEILCLVGPYMDPESLAVASCVSTTWSKCFSSEDLWKSLPATRHSIFAKAITKEGAKPAWLSYKRLISEAESAAKRRRNNQPAEPKISLSDLVFIVHVSAGSKEAVVVKQGKDLVFGSNERFQIEADVRDSGFTADMKDVSMSWNVVLRNYERMFLMSETVIKSLDSMIGWFTDELPGTKNRYCDGSNLVGEVKPSFNEDVLDKVVFAIADSRNWKSLFVDDVLRYLQCFLVD,soluble
6,MPEALRTQIDELNSWIYDKVNNGVYKAGFATTQSAYDESASTVFAALSDLETILAKQRYLTGEQLTEADLRLWTTLIRFDPVYHTHFKCDKYRLSDYPNLFGFLRDIYQMPGIAETVDMAHIRHHYYRSHGTINPHGVISLGPEQDLNQPHQRDKKFVDLYLEHHHHHH,soluble
7,GSMTEADVNPKAYPLADAHLTKKLLDLVQQSCNYKQLRKGANEATKTLNRGISEFIVMAADAEPLEIILHLPLLCEDKNVPYVFVRSKQALGRACGVSRPVIACSVTIKEGSQLKQQIQSIQQSIERLLV,soluble
8,AMAISITCPPPMSVEHADIWVKSYSLYSRERYICNSGFKRKAGTSSLTECVLNKATNVAHWTTPSLKCIRDPALVHQRPAPPSTVTTAGVTPQPESLSPSGKEPAAS,soluble
9,MQSNTPQPNPAPFLKAGETVVLFDGVCKLCNGWAKFIIRHDRRQRIRLATVQSPEGQALLEWAGLPLDRFDTMAAVTGDRLYVRSEAFFVALSDFPAPWRWLRVLRFFPAVIRDWLYDRIALNRYRLFGRYDSCLLPTPDHERRFLKASPLEHHHHHH,soluble
10,MPTTIEREFEELDTQRRWQPLYLEIRNESHDYPHRVAKFPENRNRNRYRDVSPYDHSRVKLQNAENDYINASLVDIEEAQRSYILTQGPLPNTCCHFWLMVWQQKTKAVVMLNRIVEKESVKCAQYWPTDDQEMLFKETGFSVKLLSEDVKSYYTVHLLQLENINSGETRTISHFHYTTWPDFGVPESPASFLNFLFKVRESGSLNPDHGPAVIHCSAGIGRSGTFSLVDTCLVLMEKGDDINIKQVLLNMRKYRMGLIQTPDQLRFSYMAIIEGAKCIKGDSSIQKRWKELSKEDLSPAFDHSPNKIMTEKYN,soluble
11,MGHHHHHHSHMQDGFLTVSIIDATNNRPIQNAVVNIYSMSNGSQSSSTLYQNLRSNESGQVTGLVLPAPDVDYSLQPSDVRPYSQYIVEAIADGYETVVIEGTQLLATIEARQGVPMSPRTRSKRSFSRQSELIFDIGEHTLYGTYPPKIPESNLKPLPPPTGFVVLDNPVVPEFIVVHDGLPEDSSAPNYWIPFKEYIKNIASSEIYSTWPEQTIYANVIAIISFTLNRVFTEWYRNKGYNFTITSTTAYDHKFINNRNLFEPINVVVDAIFNTFIKRPPTSRQPLLAQYCDGQKSQCPDQMTQWGSKDLGDQGYDYESILRYFYGDEIVFERAPIVSGVPVSFPGTTLQVGSSGQYVRTIQNQLNAISNSYPAVPKVIEDGIYGTDTENAVKIFQGIFGLPQSGVVDFKTWYEISRVYVATTRIASLNPLI,soluble
12,PVSGTPSGITELDNVTTGGQPGELIIIAARPAMGKTTFAQLVAQSTLNKYPDASIQFYSQEMPADQLVQRFMSMRSRISLQSIRQATELTELAWSKIAEAMGYIMNNWKDRLLIDDEPSLPPYRLRTKVRRNTRLYGKPKAIIIDYIQLMRSTGKFENRNLELAEISSELKKLAKETGCPVYALSQLNRSLEQRANKRPVNSDL,not soluble
13,MTFFPEIDIQKTKSNAKRKLREYPRWRRIANDVDTQKVTATYSFEPRQSHGVPSKPVERLALNRVSAEQELDAIEQAVSMILEPERRRILYDKYLAPYKKADKVIYTELCMSESFYYDTLDIALLAFAELYREGVLLVEEGVFS,not soluble
14,MAHHHHHHSLDSLGAINKIQDFLQKQEYKTLEYNLTTTEVVMENVTAFWEEGFGELFEKAKQNNNNRKTSNGDDSLFFSNFSLLGTPVLKDINFKIERGQLLAVAGSTGAGKTSLLMMIMGELEPSEGKIKHSGRISFCSQFSWIMPGTIKENIIFGVSYDEYRYRSVIKACQLEEDISKFAEKDNIVLGEGGITLSGGQRARISLARAVYKDADLYLLDSPFGYLDVLTEKEIFESCVCKLMANKTRILVTSKMEHLKKADKILILHEGSSYFYGTFSELQNLQPDFSSKLMGCDSFDQFSAERRNSILTETLHRLSLEGDAPVSWTETKKQSFKQTGEFGEKRKNSILNPINSIRKEG,soluble
15,MIYSMTAYARKEVKGDWGSAVWEIRSVNQRYLETYFRLPEQFRGLEPLLRERFRQRLSRGKIECHLRFEANPAAQSHLTINEGLAQQVINAANQIMHMTGELSRINPFQVMQWPGVMETPEQDMDAINQALLSAFDEGVDEFIAARGREGDNMKALIEQRLQAISAEVVKVRARMPEILEWQRERLFSKFEEAKIELDASRVEQELILLAQKSDVAEELDRLDSHVKEAREVLKKGGSCGRKLDFMMQEFNRESNTLASKSISTDITASGVELKVLIEQMREQIQNIE,not soluble
16,MLTLITFPKAFGLYSASPFCVKAAYLLTLAGEPWQRQDQTDPRRMPHGKLPVLRTPERLVPDSDGIRAWLESRGAEFDRGLTDAQRASARALIHMAEDHFYPYLVLDRWGNDAVWAIIRDTFFGEIPRLLRKPVTNRIRAQVLRGLDFQGMARFSEAERRDRVERSFEAVTALLWQKPFLFGDAPTGADLSVAPMLAAMRATPVATPLQRRVAGDRVLSDYIDRMDATLPLT,not soluble
